Laboratory results from US20060024313.

Biological target: P27487

B1: endogenous DPP-IV purified from human semen (sDPP-IV) (protein)
chain: SRKTYTLTDYLKNTYRLKLYSLRWISDHEYLYKQENNILVFNAEYGNSSVFLENSTFDEFGHSINDYSISPDGQFILLEYNYVKQWRHSYTASYDIYDLNKRQLITEERIPNNTQWVTWSPVGHKLAYVWNNDIYVKIEPNLPSYRITWTGKEDIIYNGITDWVYEEEVFSAYSALWWSPNGTFLAYAQFNDTEVPLIEYSFYSDESLQYPKTVRVPYPKAGAVNPTVKFFVVNTDSLSSVTNATSIQITAPASMLIGDHYLCDVTWATQERISLQWLRRIQNYSVMDICDYDESSGRWNCLVARQHIEMSTTGWVGRFRPSEPHFTLDGNSFYKIISNEEGYRHICYFQIDKKDCTFITKGTWEVIGIEALTSDYLYYISNEYKGMPGGRNLYKIQLSDYTKVTCLSCELNPERCQYYSVSFSKEAKYYQLRCSGPGLPLYTLHSSVNDKGLRVLEDNSALDKMLQNVQMPSKKLDFIILNETKFWYQMILPPHFDKSKKYPLLLDVYAGPCSQKADTVFRLNWATYLASTENIIVASFDGRGSGYQGDKIMHAINRRLGTFEVEDQIEAARQFSKMGFVDNKRIAIWGWSYGGYVTSMVLGSGSGVFKCGIAVAPVSRWEYYDSVYTERYMGLPTPEDNLDHYRNSTVMSRAENFKQVEYLLIHGTADDNVHFQQSAQISKALVDVGVDFQAMWYTDEDHGIASSTAHQHIYTHMSHFIKQCFSLP
- specific activity after serial dilution (H-Gly-Pro-pNA hydrolysis): no decrease in specific activity were observed for either sDPP-IV or rDPP-IV even at a concentration as low as 1.6 nM

B2: DPP-IV H750A mutant (protein)
chain: SRKTYTLTDYLKNTYRLKLYSLRWISDHEYLYKQENNILVFNAEYGNSSVFLENSTFDEFGHSINDYSISPDGQFILLEYNYVKQWRHSYTASYDIYDLNKRQLITEERIPNNTQWVTWSPVGHKLAYVWNNDIYVKIEPNLPSYRITWTGKEDIIYNGITDWVYEEEVFSAYSALWWSPNGTFLAYAQFNDTEVPLIEYSFYSDESLQYPKTVRVPYPKAGAVNPTVKFFVVNTDSLSSVTNATSIQITAPASMLIGDHYLCDVTWATQERISLQWLRRIQNYSVMDICDYDESSGRWNCLVARQHIEMSTTGWVGRFRPSEPHFTLDGNSFYKIISNEEGYRHICYFQIDKKDCTFITKGTWEVIGIEALTSDYLYYISNEYKGMPGGRNLYKIQLSDYTKVTCLSCELNPERCQYYSVSFSKEAKYYQLRCSGPGLPLYTLHSSVNDKGLRVLEDNSALDKMLQNVQMPSKKLDFIILNETKFWYQMILPPHFDKSKKYPLLLDVYAGPCSQKADTVFRLNWATYLASTENIIVASFDGRGSGYQGDKIMHAINRRLGTFEVEDQIEAARQFSKMGFVDNKRIAIWGWSYGGYVTSMVLGSGSGVFKCGIAVAPVSRWEYYDSVYTERYMGLPTPEDNLDHYRNSTVMSRAENFKQVEYLLIHGTADDNVHFQQSAQISKALVDVGVDFQAMWYTDEDHGIASSTAHQAIYTHMSHFIKQCFSLP
- specific activity after serial dilution (H-Gly-Pro-pNA hydrolysis): the specific activity of H750A protein was also constant over the range of 200 nM to 1.6 nM

B3: recombinant wild-type human DPP-IV (rDPP-IV), amino acids 39 to 766, secreted from baculovirus-infected Hi5 insect cells (protein)
chain: SRKTYTLTDYLKNTYRLKLYSLRWISDHEYLYKQENNILVFNAEYGNSSVFLENSTFDEFGHSINDYSISPDGQFILLEYNYVKQWRHSYTASYDIYDLNKRQLITEERIPNNTQWVTWSPVGHKLAYVWNNDIYVKIEPNLPSYRITWTGKEDIIYNGITDWVYEEEVFSAYSALWWSPNGTFLAYAQFNDTEVPLIEYSFYSDESLQYPKTVRVPYPKAGAVNPTVKFFVVNTDSLSSVTNATSIQITAPASMLIGDHYLCDVTWATQERISLQWLRRIQNYSVMDICDYDESSGRWNCLVARQHIEMSTTGWVGRFRPSEPHFTLDGNSFYKIISNEEGYRHICYFQIDKKDCTFITKGTWEVIGIEALTSDYLYYISNEYKGMPGGRNLYKIQLSDYTKVTCLSCELNPERCQYYSVSFSKEAKYYQLRCSGPGLPLYTLHSSVNDKGLRVLEDNSALDKMLQNVQMPSKKLDFIILNETKFWYQMILPPHFDKSKKYPLLLDVYAGPCSQKADTVFRLNWATYLASTENIIVASFDGRGSGYQGDKIMHAINRRLGTFEVEDQIEAARQFSKMGFVDNKRIAIWGWSYGGYVTSMVLGSGSGVFKCGIAVAPVSRWEYYDSVYTERYMGLPTPEDNLDHYRNSTVMSRAENFKQVEYLLIHGTADDNVHFQQSAQISKALVDVGVDFQAMWYTDEDHGIASSTAHQHIYTHMSHFIKQCFSLP
- specific activity after serial dilution (H-Gly-Pro-pNA hydrolysis): no decrease in specific activity were observed for either sDPP-IV or rDPP-IV even at a concentration as low as 1.6 nM
